Data from patent US6372459B1, “N-acetyl amino acid racemase” (Degussa AG, priority 1999, dated 2002).

Experiments:
[1] = standard enzyme test for racemase (AAR) activity, HPLC detection; format: biochemical, Amycolatopsis orientalis subspecies lurida; details: N-unprotected amino acids as substrate
[2] = as above; format: biochemical, Amycolatopsis orientalis subspecies lurida
From the text: The AAR activity was followed up in a coupled enzymatic assay (Diagram 1), in that the formation of a deacetylated amino acid from an N-acetyl-D-amino acid, methionine here, was detected using the HPLC system I. The L-specific […] from pig kidneys or Aspergillus oryzae served as the auxiliary enzymes. [drawing 1]
Further characterization of the AAR took place using the HPLC system II. Using this system, it was possible to study the activity of the AAR directly. In this way, it was possible to do without the auxiliary enzyme, the acylase, so that it was possible to avoid disruptive interference activity.
Crude extracts of the superexpression clone, […]. purified enzyme fractions, were used in an enzyme test, in that it was possible to detect the formation of L-methionine from N-acetyl-D-methionine (see Diagram 1), via HPLC:
The standard enzyme test (modified according to Tokuyama et al., Appl. Microbiol. Biotechnol. (1994), 40, 835-840; ibid., Appl. Microbiol. Biotechnol. (1995a), 42, 853-859), was composed as follows:
Solvent: Tris/HCl, pH 7.5, 50 mM
N-acetyl-D-methionine 25 mM
Acylase I (ASch or AAsp) 1 U
Protein 2-150 μg purified protein or total protein
In this connection, acylase I and Co^2+ are present in excess, so that the AAR reaction is the step that determines the speed. Incubation took place for 10-40 min at 30° C. The reaction was then stopped by boiling for 3 min. Analysis of the reaction products took place using HPLC (System I).
Unless mentioned otherwise, acylase I from pig kidneys (ASch) was used in the enzyme test, and Co^2+, was used as the ion (CoCl2×6H2O). Alternatively, however, acylase I from Aspergillus oryzae (AAsp) was also used.
In assays that were analyzed using the HPLC system II, the acylase could be left out, since it is possible to separate and analyze N-acetyl amino acids directly, enantioselectively, with this system.
Other than Co^2+ (CoCl2×6H2O), other bivalent ions, such as MnCl2×4H2O, […], and MgCl2×6H2O were used in various concentrations (0.1-10 mM).
Substrate inhibition was tested in that the activity of the AAR was mixed with 25 to 400 mM N-acetyl-D-methionine as the substrate.

B1: AAR from A. orientalis subspecies lurida: N-acetyl amino acid racemase (SEQ ID NO: 2) from Amycolatopsis orientalis subspecies lurida, natural or recombinant enzyme (protein)
chain: VKLSGVELRRVRMPLVAPFRTSFGTQSERELLLVRAVTPAGEGWGECVAMEAPLYSSEYNDAAEHVLRNHLIPALLAAEDVTAHKVTPLLAKFKGHRMAKGALEMAVLDAELRAHDRSFAAELGSTRDSVACGVSVGIMDSIPHLLDVVGGYLDEGYVRIKLKIEPGWDVEPVRQVRERFGDDVLLQVDANTAYTLGDAPLLSRLDPFDLLLIEQPLEEEDVLGHAELAKRIRTPICLDESIVSAKAAADAIKLGACQIVNIKPGRVGGYLEARRVHDVCAAHGIAVWCGGMIETGLGRAANVALASLPGFTLPGDTSASGRFYRTDITEPFVLDAGHLPVPTGPGLGVTPIPDLLDEVTTEKAWIGS
[1]
  conversion of amino acids not protected with N-acetyl: does not convert
[1]; listed as AAR
  conversion of amino acids not protected with N-acetyl: not converted
[2]
  optimum pH: 8
[2]; 1 mM CoCl2×6H2O in the assay
  increase in the activity as compared with the activity without metal ion: 1250%
[2]; 2 mM CoCl2×6H2O in the assay
  specific AAR activity after purification: 30.6 U/mg
  specific activity higher than the one found for racemase by Tokuyama and Hatano: approximately 30.8%
[2]; 10 mM CoCl2×6H2O in the assay
  activity: 37.5 U/mg
[2]; MgCl2×6H2O at 10 mM, standard enzyme assay
  activity with Mg in comparison with cobalt substitution: about 40%
[2]; MnCl2×4H2O at 10 mM, standard enzyme assay
  activity with Mn in comparison with cobalt substitution: about 40%
[2]; N-acetyl-D-methionine as substrate, 25 to 400 mM tested
  substrate concentration at which substrate inhibition occurs: greater than 200 mM
[2]; crude extracts of E. coli BL21 (DE3) with pAAR3-21I
  AAR activity in crude extracts of the expression clone: 0.6-1.2 U/mg total protein
[2]; same CoCl2×6H2O concentration in the assay
  more active than the racemase from A. sp. TS-1-60: 152%
